Source: paper PMC3458955 (2012)

Biological target: CXCL12α (Homo sapiens, UniProt P48061)
Assay: total internal reflection ellipsometry (TIRE) on Ishikawa cell membranes; given as Ka

B1: CXCR4 (protein)
chain: MEGISIYTSDNYTEEMGSGDYDSMKEPCFREENANFNKIFLPTIYSIIFLTGIVGNGLVILVMGYQKKLRSMTDKYRLHLSVADLLFVITLPFWAVDAVANWYFGNFLCKAVHVIYTVNLYSSVLILAFISLDRYLAIVHATNSQRPRKLLAEKVVYVGVWIPALLLTIPDFIFANVSEADDRYICDRFYPNDLWVVVFQFQHIMVGLILPGIVILSCYCIIISKLSHSKGHQKRKALKTTVILILAFFACWLPYYIGISIDSFILLEIIKQGCEFENTVHKWISITEALAFFHCCLNPILYAFLGAKFKTSAQHALTSVSRGSSLKILSKGKRGGHSSVSTESESSSFHSS
Kd: 714 pM
